The source of these data is article PMC5412928, “Engineered ligand‐based VEGFR antagonists with increased receptor binding affinity more effectively inhibit angiogenesis” (Bioengineering & Translational Medicine, 2017).

One test addresses T1, VEGFR2 on HUVECs (human (endogenous in HUVECs), UniProt P35968 20-1356).
T1 construct: VEGFR2, endogenous on HUVECs; HUVECs also bear αvβ3 integrin; source: endogenous, on human umbilical vein endothelial cells (HUVECs)
The experiment in a line: flow cytometry on cells; apparent; soluble FLAG-tagged scVEGF variants titrated on 50,000 serum-starved HUVECs (bear VEGFR2 and αvβ3 integrin) in integrin binding buffer, 4°C, 4–6 hr; phycoerythrin anti-FLAG antibody; sigmoidal fit. The settings on record: one partner purified. (In general: In flow cytometry, cells or beads pass a laser one at a time.)

The target of test [1] is T2, human VEGFR2 on PAE/KDR cells (human, UniProt P35968 20-1356).
T2 construct: VEGFR2 (KDR), human, stably expressed on porcine aortic endothelial cells; also called vascular endothelial growth factor receptor 2; source: porcine aortic endothelial (PAE) cells stably transfected to express human VEGFR2 (PAE/KDR cells), on cells
T2 sequence (P35968 20-1356): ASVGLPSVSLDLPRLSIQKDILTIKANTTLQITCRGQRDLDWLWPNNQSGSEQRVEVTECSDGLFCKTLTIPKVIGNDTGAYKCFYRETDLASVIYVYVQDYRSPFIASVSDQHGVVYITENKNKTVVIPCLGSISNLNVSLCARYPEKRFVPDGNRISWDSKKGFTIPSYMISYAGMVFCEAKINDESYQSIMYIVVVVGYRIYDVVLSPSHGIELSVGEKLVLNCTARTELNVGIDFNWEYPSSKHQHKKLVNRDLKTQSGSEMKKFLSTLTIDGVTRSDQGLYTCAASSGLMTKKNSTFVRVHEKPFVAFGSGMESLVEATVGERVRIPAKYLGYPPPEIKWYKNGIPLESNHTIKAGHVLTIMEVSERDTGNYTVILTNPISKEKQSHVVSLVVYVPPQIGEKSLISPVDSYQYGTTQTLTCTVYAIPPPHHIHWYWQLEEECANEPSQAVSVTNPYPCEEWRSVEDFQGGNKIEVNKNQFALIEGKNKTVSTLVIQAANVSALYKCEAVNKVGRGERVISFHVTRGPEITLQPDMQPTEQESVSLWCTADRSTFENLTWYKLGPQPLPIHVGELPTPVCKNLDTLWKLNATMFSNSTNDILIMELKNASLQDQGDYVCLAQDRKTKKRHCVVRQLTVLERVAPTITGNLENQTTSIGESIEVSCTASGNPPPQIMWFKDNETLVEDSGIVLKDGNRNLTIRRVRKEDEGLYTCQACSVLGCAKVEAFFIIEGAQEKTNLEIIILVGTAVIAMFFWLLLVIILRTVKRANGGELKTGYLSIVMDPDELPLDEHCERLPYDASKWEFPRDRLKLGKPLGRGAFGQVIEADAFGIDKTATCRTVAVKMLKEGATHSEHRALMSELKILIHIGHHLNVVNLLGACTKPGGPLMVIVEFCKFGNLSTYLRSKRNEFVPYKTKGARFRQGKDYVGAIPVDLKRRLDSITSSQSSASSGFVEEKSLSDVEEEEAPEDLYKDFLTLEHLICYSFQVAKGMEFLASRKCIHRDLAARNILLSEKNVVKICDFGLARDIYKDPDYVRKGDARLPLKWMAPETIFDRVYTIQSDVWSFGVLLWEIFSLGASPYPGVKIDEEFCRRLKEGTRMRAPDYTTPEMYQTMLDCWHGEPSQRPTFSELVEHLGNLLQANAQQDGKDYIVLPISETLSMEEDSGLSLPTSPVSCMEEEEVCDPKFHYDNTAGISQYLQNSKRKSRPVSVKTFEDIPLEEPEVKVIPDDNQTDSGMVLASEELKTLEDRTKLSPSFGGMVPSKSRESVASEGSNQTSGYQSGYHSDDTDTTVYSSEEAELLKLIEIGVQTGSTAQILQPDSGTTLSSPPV
Briefly: flow cytometry on cells; soluble FLAG-tagged scVEGF variants titrated on 50,000 PAE/KDR cells in integrin binding buffer (20 mM Tris pH 7.5, 100 mM NaCl, 1 mM MgCl2, 1 mM MnCl2, 2 mM CaCl2, 1 mg/ml BSA), 4°C, 4–6 hr; phycoerythrin anti-FLAG antibody; sigmoidal fit of mean fluorescence. The conditions noted are these: one partner purified.

T1 sequence (P35968 20-1356): as above

B1: scVEGFmut (ligand)
chain: APMAEGGGQNHHEVVKAMDVYQRSYCHPIETLVDIFQEYPDEIEYIFKPSCVPLMRCGGCCNDAGLECVPTEESNITMQIMRIKPHQGQHIGEMSFLQHNKCECRPKKDGSTSGSGKSSEGKGAPMAEGGGQNHHEVVKFMDVYQRSYCHPIETLVDIFQEYPDEIEYAFKPSCVPLMRCGGCCNDEGLECVPTEESNITMQIMRAKPHQGQHIGEMSFLQHNKCECRPKKD
For the molecule B1, in the test with VEGFR2 on HUVECs, the “fold tighter binding of scVEGFmE7I than of scVEGFmut” value was at least 330 fold. Also, in test [1], the Kd is 27 nM.

B2: scVEGFwt (ligand)
chain: APMAEGGGQNHHEVVKFMDVYQRSYCHPIETLVDIFQEYPDEIEYIFKPSCVPLMRCGGCCNDEGLECVPTEESNITMQIMRIKPHQGQHIGEMSFLQHNKCECRPKKDGSTSGSGKSSEGKGAPMAEGGGQNHHEVVKFMDVYQRSYCHPIETLVDIFQEYPDEIEYIFKPSCVPLMRCGGCCNDEGLECVPTEESNITMQIMRIKPHQGQHIGEMSFLQHNKCECRPKKD
Consider B2, for which the Kd with VEGFR2 on HUVECs came to 3.8 nM.
